Paper doi:10.1101/2023.02.03.526835 (bioRxiv, 2023)

Target: the molecule itself
Assay: cryo-EM structure

B1: Lcb2 (enzyme, S. cerevisiae)
chain: MSTPANYTRVPLCEPEELPDDIQKENEYGTLDSPGHLYQVKSRHGKPLPEPVVDTPPYYISLLTYLNYLILIILGHVHDFLGMTFQKNKHLDLLEHDGLAPWFSNFESFYVRRIKMRIDDCFSRPTTGVPGRFIRCIDRISHNINEYFTYSGAVYPCMNLSSYNYLGFAQSKGQCTDAALESVDKYSIQSGGPRAQIGTTDLHIKAEKLVARFIGKEDALVFSMGYGTNANLFNAFLDKKCLVISDELNHTSIRTGVRLSGAAVRTFKHGDMVGLEKLIREQIVLGQPKTNRPWKKILICAEGLFSMEGTLCNLPKLVELKKKYKCYLFIDEAHSIGAMGPTGRGVCEIFGVDPKDVDILMGTFTKSFGAAGGYIAADQWIIDRLRLDLTTVSYSESMPAPVLAQTISSLQTISGEICPGQGTERLQRIAFNSRYLRLALQRLGFIVYGVADSPVIPLLLYCPSKMPAFSRMMLQRRIAVVVVAYPATPLIESRVRFCMSASLTKEDIDYLLRHVSEVGDKLNLKSNSGKSSYDGKRQRWDIEEVIRRTPEDCKDDKYFVN
modifications: pyridoxal 5'-phosphate (PLP) as internal aldimine with K366
binding result: binds
